In assay [1] the target is c1d1_v2 displayed on yeast (S. cerevisiae). Briefly: Fab titration on yeast-displayed construct, flow cytometry. Background: Flow cytometry measures light scatter and fluorescence of single cells or particles in a stream.
Assay [2] addresses c1d1_N386D displayed on yeast (S. cerevisiae). The assay is described as above.
The target of assay [3] is c1d1_N386D. The assay is described as follows: ITC, b12 IgG.
Assay [4] has as its target wild-type core GP120 (Human immunodeficiency virus type 1 group M subtype B (isolate HXB2) (HIV-1)) (UniProt P04578). Briefly: SPR, IgG captured by anti-human IgG, construct as analyte. For orientation: SPR reads the build-up and loss of mass on a sensor chip optically.
The target of assay [5] is c1d1_b10disulf. The description is as above.
In assay [6] the target is c1d1_b2021. Described as above.
Assay [7] concerns the target c1d1_N386D. The assay is described as above.
Assay [8] has as its target ODml(N386) (Human immunodeficiency virus type 1 group M subtype B (isolate HXB2) (HIV-1)) (UniProt P04578). The assay is described as above.
Assay [9] deals with ODml(d1_disulf) (Human immunodeficiency virus type 1 group M subtype B (isolate HXB2) (HIV-1)) (UniProt P04578). The assay is described as above.
Assay [10] concerns the target c2d1_b10disulf. The description is as above.
Assay [11] deals with OD(D386) (Human immunodeficiency virus type 1 group M subtype B (isolate HXB2) (HIV-1)) (UniProt P04578). The assay is described as above.
In assay [12] the target is c1d1_minglyc. The assay is described as above.
Assay [13] deals with ODml(D386) (Human immunodeficiency virus type 1 group M subtype B (isolate HXB2) (HIV-1)) (UniProt P04578). Described as above.
Assay [14] has as its target c1d1_v2. The description is as above.
Assay [15] has as its target c1d1_b2021. The assay is described as follows: SPR.
Assay [16] concerns the target c1d1_N386D. The assay is described as follows: SPR.
In assay [17] the target is ODml(d1_disulf) (Human immunodeficiency virus type 1 group M subtype B (isolate HXB2) (HIV-1)) (UniProt P04578). Briefly: SPR.
For assay [18], the target named is c1d1_minglyc. Briefly: SPR.
The target in assay [19] is ODml(D386) (Human immunodeficiency virus type 1 group M subtype B (isolate HXB2) (HIV-1)) (UniProt P04578). Briefly: SPR.
The target of assay [20] is c1d1_v2. Briefly: SPR.
Assay [21] has as its target eOD_VD(-)_g5. The assay is described as follows: Kd, method not stated; construct from 293 cells.
The target in assay [22] is eOD_VD(-)_g3. Briefly: Kd, method not stated; construct from 293 cells.
Assay [23] concerns the target eOD_VD(-)_g8. Briefly: Kd, method not stated; construct from 293 cells.
The target of assay [24] is eOD_VD(-)_g4. The assay is described as follows: Kd, method not stated; construct from 293 cells.
Assay [25] concerns the target eOD_VD(-)_g2. The assay is described as follows: Kd, method not stated; construct from 293 cells.
In assay [26] the target is eOD_VD(-)_g6. Briefly: Kd, method not stated; construct from 293 cells.
Assay [27] concerns the target eOD_VD(-)_g7. The assay is described as follows: Kd, method not stated; construct from 293 cells.
Assay [28] deals with eOD_VH1-2_v6.0 (HIV-1 HxB2 (engineered)). The assay is described as follows: dissociation constant, method not stated.
Assay [29] deals with c1d1_b10disulf displayed on yeast (S. cerevisiae). Briefly: Fab titration on yeast-displayed construct, flow cytometry.
The target in assay [30] is eOD_VH1-2_v6.0 (HIV-1 HxB2 (engineered)). The assay is described as follows: SPR, IgG captured by anti-human IgG, eOD as analyte, 1:1 kinetic fit.
Assay [31] shares this target. The assay is described as follows: dissociation constant, SPR (FIG. 2).
In assay [32] the target is eOD_VH1-2_v4.0 (HIV-1 HxB2 (engineered)). Briefly: method not stated.
Assay [33] addresses eOD_L260F. Briefly: method not stated.
Assay [34] has as its target eOD_N276D_N463D. Briefly: method not stated.
The target in assay [35] is eOD_N276D. The assay is described as follows: method not stated.
The target in assay [36] is eOD_L260F_N276D. The assay is described as follows: method not stated.
The target in assay [37] is core_gp120_VH1-2_v2.0 (HIV-1 BaL (engineered)). Briefly: SPR.
The target in assay [38] is eOD_VH1-2_v1.0 (HIV-1 HxB2 (engineered)). The assay is described as follows: SPR.
Assay [39] addresses c1d1_N386D. The assay is described as follows: method not given.
The target of assay [40] is eOD_VH1-2_v6.0 (HIV-1 HxB2 (engineered)). Briefly: SPR, IgG captured by anti-human IgG, eOD as analyte, 1:1 fit with mass transport.
Assay [41] deals with eOD_N276D_N463D. The assay is described as follows: method not stated; protein from 293 cells.
Assay [42] concerns the target eOD_T257S_S375W (HIV-1 HxB2 (engineered)). Briefly: method not stated.
Assay [43] deals with eOD_T257S_L260F_S375W. Briefly: method not stated.
Assay [44] concerns the target eOD_VH1-2_v6.0 (HIV-1 HxB2 (engineered)). Briefly: dissociation constant, SPR (FIG. 3).
Assay [45] has as its target ODml(N386) (Human immunodeficiency virus type 1 group M subtype B (isolate HXB2) (HIV-1)) (UniProt P04578). Briefly: SPR (value differs from Table 1).
The target of assay [46] is c1d1_N386D. Briefly: SPR and ITC.
The target in assay [47] is c1d1_b10disulf. Briefly: ITC.
Assay [48] concerns the target c1d1_N386D. Briefly: ITC. (In general: In ITC the heat of successive injections is recorded.)
The target in assay [49] is c1d1_v2. Briefly: ITC.

From patent US10221217 come the findings set out here.

The term Kd denotes the constant that tells how readily two partners part at equilibrium. A high value points to weaker binding. The koff is a measure of how fast the partners let go of each other. Read a low koff as slow dissociation. By kon is commonly meant the rate constant with which the complex forms. A low value points to slow association.

Regarding b12 Fab, the values for the Kd in [1] and in [2] were 0.011 µM and 0.021 µM, respectively.

Regarding b12 IgG (antibody), the Kd in assay [3] is 0.065 µM; in assay [4], 0.0045 µM; in [5] it was 0.2 µM; in [6] it was 0.12 µM; in [7] it was 0.059 µM; in assay [8], 1.9 µM. The Kd in [9] is 0.175 µM; in assay [10] it was 0.148 µM; in [11], 1.6 µM; in assay [12], 0.031 µM; in assay [13], 0.53 µM; in assay [14], 0.03 µM. The Kd in assay [15] was found to be 0.148 µM; in [21] it was 0.132 µM; in assay [22] it was 0.0216 µM; in [23], 0.007 µM; in assay [24], 0.076 µM; in assay [25], 0.096 µM. The Kd amounted to 0.514 µM in assay [26] and 0.421 µM in assay [27]. In [15], this substance returned a fold weaker KD than c1d1 N386D of 2.5 fold. This substance also registered a fold improvement of KD over OD(386) in [16] of 28 fold. The fold improvement of KD over ODml in assay [16] turned out to be 9 fold; in assay [17], 3 fold. Moreover, the fold improvement of KD over OD(D386) amounted to 9 fold in assay [17] and 3 fold in [19]. Also, the fold improvement of KD over c1d1 N386D in assay [18] and in assay [20] was 2 fold throughout. In addition, in [20], the fold improvement of KD over c1d1 b10disulf worked out at 8 fold.

In assay [28], germline NIH45-46 (antibody) registered a Kd of 0.408 µM. This lies in the sub-micromolar range.

With VRC01 Fab, the equilibrium dissociation constant (Kd) in assay [1], in assay [29] and in [2] was greater than 0.05 µM throughout.

On to germline VRC01 (antibody), for which the equilibrium dissociation constant (Kd) in assay [30] was 0.0436 µM; in assay [31], 0.044 µM; in [32], 0.1 µM; in [33] it was greater than 500 µM; in assay [34], 380 µM; in [35] it was 640 µM. Also, the Kd in assay [36] came to 149 µM; in assay [37] it was 1.6 µM; in assay [38], 40 µM. The same substance gave a koff in assay [30] of 0.000683 s⁻¹. Besides, the association rate constant (kon) in [30] came to 15700 M⁻¹ s⁻¹.

Regarding VRC01 IgG (mature) (antibody), the Kd in assay [39] was 0.08 µM; in assay [40], 0.0017 µM; in [4] it was 0.0039 µM; in [7], 0.139 µM; in assay [8] it was 0.298 µM; in [10] it was 0.289 µM. The dissociation constant Kd in assay [12] was determined as 0.0075 µM; in assay [14], 0.249 µM; in assay [41], 0.004 µM; in assay [42] it was 0.09 µM; in assay [33], 0.0143 µM; in assay [43], 0.0086 µM. Also, the dissociation constant Kd turned out to be 0.0278 µM in assay [35]; 0.0119 µM in [36]; 0.0017 µM in assay [44]; 0.53 µM in [45]; 0.1 µM in assay [47]; 0.2 µM in [48]. In addition, the dissociation constant (Kd) in [49] was 0.1 µM; in [21] it was 0.015 µM; in [22], 0.0047 µM; in assay [23], 0.0028 µM; in assay [24], 0.0073 µM; in assay [25] it was 0.007 µM. Also, the dissociation constant Kd came out at 0.0046 µM in [26] and 0.109 µM in [27]. Also, in assay [39], the fold weaker affinity than core gp120 is greater than 10 fold. Further, the koff in assay [40] came out at 0.000251 s⁻¹. The substance further yielded a kon in assay [40] of 148000 M⁻¹ s⁻¹. In addition, the fold weaker KD than core gp120 in [46] was in the range of 35 to 50 fold. The fold improvement of KD over c1d1 N386D in assay [47] worked out at 2 fold.

In turn, mature NIH45-46 (antibody) showed a dissociation constant Kd in assay [28] of 0.0038 µM.
